Measurements: article PMC10433963

Tests used:
[1] = target: ^H7-SUMOClpC1^FLAG (recombinant ClpC1) (M. smegmatis) (UniProt A0R574)
[2] = target: ^H7-SUMOClpC1^FLAG (recombinant ClpC1) (M. smegmatis) (UniProt A0R574); remark: listed apart in the source

^H7-SUMOClpC1^FLAG (recombinant ClpC1) (M. smegmatis), sequence (A0R574 whole entry): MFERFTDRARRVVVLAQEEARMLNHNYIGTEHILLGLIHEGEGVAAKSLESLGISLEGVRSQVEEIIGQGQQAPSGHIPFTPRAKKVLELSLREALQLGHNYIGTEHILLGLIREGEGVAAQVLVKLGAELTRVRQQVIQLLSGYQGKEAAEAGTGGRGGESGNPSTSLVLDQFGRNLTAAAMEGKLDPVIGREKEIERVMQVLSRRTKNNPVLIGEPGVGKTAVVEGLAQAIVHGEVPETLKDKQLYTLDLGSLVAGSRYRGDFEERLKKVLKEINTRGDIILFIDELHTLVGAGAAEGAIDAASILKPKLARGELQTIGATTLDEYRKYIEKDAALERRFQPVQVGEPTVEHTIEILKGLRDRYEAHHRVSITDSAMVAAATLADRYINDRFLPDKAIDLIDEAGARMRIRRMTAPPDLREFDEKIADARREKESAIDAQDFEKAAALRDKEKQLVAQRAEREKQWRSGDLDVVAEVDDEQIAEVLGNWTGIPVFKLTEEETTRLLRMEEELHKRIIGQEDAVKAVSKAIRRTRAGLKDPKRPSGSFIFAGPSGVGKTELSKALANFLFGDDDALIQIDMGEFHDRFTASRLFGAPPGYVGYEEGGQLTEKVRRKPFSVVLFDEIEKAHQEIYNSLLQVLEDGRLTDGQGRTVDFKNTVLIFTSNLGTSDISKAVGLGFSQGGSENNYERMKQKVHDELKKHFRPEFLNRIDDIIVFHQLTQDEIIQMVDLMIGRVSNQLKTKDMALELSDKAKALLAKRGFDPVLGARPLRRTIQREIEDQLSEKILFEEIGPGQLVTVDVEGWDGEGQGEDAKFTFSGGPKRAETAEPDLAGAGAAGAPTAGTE

Substance	Km of degradation by ClpC1P1P2, loss of GFP fluorescence, Michaelis-Menten analysis [1] [µM]	Km of degradation by 1 uM ClpC1P1P2, loss of GFP fluorescence, Michaelis-Menten analysis [1] [µM]	other results
GFP preceded by the first 13 residues of MSMEI_3879	19.1	–	–
GFP appended with the last 13 residues of MSMEI_3879	5.97	–	–
^MSMEI_3879GFP (MSMEI_3879 fused to the N terminus of GFP)	–	2.06	–
GFP^MSMEI_3879 (MSMEI_3879 fused to the C terminus of GFP)	–	18.8	–
MSMEI_3879 (recombinant) (natural protein)	–	–	degradation of 10 uM MSMEI 3879 by 1 uM ClpC1 and 1 uM ClpP1P2 in vitro, SDS-PAGE densitometry, protein hydrolyzed within 40 min [2]: 75%
